Substitutions are numbered along the chain they refer to.
Key:
[1] = molecular target: T1, human PD-L1 protein (ELISA antigen) (human, UniProt Q9NZQ7 19-238, limits assumed); assay: ELISA; PD-L1 protein on NeutrAvidin plate, crude nanobody, anti-HA detection; positive = absorbance more than three times control
T1 construct: also called PD-L1-biotin protein
Experimental: After several rounds of panning, TG1 competent cells in the logarithmic phase of growth were infected with the eluted phages, gradiently diluted and spread on the plate for overnight culture. 96 clones were picked and inoculated into a 96-well round-bottom plate with 100 μL of culture medium per well and left to be incubated overnight as the master plate. Then 10 μL of overnight cultured bacterial solution was pipetted into a 96-well deep-bottom plate with 1 mL of culture medium per well to induce nanobody expression which was then subjected to crude purification. The 96-well ELISA plate was coated with 5 μg/mL NeutrAvidin solution at 4° C., 700 rpm, overnight. The next day, 2% skim milk powder was added to block the plate at room temperature and washed 3 times with a solution containing bovine serum albumin BSA. 100 μL 3 μg/mL PD-L1 protein was added and incubated at room temperature for 30 minutes, then washed. The crudely extracted nanobody was added and incubated at room temperature for 1 h followed by washing. Mouse anti-HA primary antibody was added and the mixture was incubated at room temperature for 1 hour followed by washing. Goat anti-mouse alkaline phosphatase-labeled secondary antibody was added and the mixture was incubated at room temperature for 1 hour followed by washing. Alkaline phosphatase colorimetric solution was added for 10 minutes, and the absorption value was detected at 405 nm on a microplate reader. A well with an absorption value that is more than three times the absorption value of the control group is preliminarily determined as a positive well. The positive clones were transferred to a shaking tube for culture in order to extract the plasmid and then subjected to sequencing. Finally, 11 candidate positive clones were obtained.

[2] = molecular target: T2, human PD-L1 on stably transfected cell line HEK293T/hPD-L1 (human, UniProt Q9NZQ7 19-290); assay: flow cytometry on HEK293T/hPD-L1 cells, 10 ug/ml nanobody, anti-human IgG Fc (FITC)
T2 construct: whole, on cells
T2 sequence (Q9NZQ7 19-290): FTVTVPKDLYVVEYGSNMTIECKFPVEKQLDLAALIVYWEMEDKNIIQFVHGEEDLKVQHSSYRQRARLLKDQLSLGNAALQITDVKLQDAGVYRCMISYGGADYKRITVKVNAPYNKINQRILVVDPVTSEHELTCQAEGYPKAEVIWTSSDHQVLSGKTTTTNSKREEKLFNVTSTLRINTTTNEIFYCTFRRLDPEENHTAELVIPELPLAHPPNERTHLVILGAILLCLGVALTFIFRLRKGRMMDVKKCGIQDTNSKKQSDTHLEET
Experimental: The stably transfected cell line HEK293T/hPD-L1 was digested and centrifuged, and the supernatant was removed. The cells were washed once with PBS and the cell density was adjusted to 2.5×10⁶ cells/mL. 100 μL of cell suspension was added to each cell sample, i.e., 2.5×10⁵ cells/sample. Different anti-human PD-L1 candidate nanobodies (at a concentration of 10 μg/ml) were added into the samples. The samples were incubated in a 4° C. refrigerator for 20 min and then centrifuged to remove the supernatant, and washed once with PBS. The diluted antibody anti-human IgG Fc (FITC) was used as a secondary antibody to resuspend the above cells. The abtained samples were incubated in a 4° C. refrigerator for 20 min and centrifuged to remove the supernatant. The cells were washed twice with PBS, transferred to a flow tube; and detected on a flow cytometer to obtain the binding activity of the candidate nanobody with human PD-L1, as shown in FIG. 1.

[3] = molecular target: T1, human PD-L1 protein (ELISA antigen); assay: relative to original antibody h_Nb2 (SEQ ID NO. 5); ELISA comparison per Example 10
[4] = molecular target: T1, human PD-L1 protein (ELISA antigen); assay: relative to original antibody h_Nb1 (SEQ ID NO. 1); ELISA comparison per Example 10

T1 sequence (Q9NZQ7 19-238 limits assumed): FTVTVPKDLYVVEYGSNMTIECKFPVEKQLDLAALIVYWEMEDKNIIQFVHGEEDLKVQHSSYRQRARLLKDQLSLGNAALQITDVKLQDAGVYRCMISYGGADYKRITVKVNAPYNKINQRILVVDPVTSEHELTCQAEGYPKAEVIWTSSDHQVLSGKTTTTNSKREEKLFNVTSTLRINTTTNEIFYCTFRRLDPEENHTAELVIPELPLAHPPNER

B1: h_Nb12 VHH (VHH)
VHH: DVQLQESGGGLVQAGGSLRLSCAASGRTFSSRAMGWFRQAPGKEREFVAAISGSGRNTYYADSVKGRFTISRDNAKNSVNLQMNSLKPEDTAVYYCNAAGGGITIATMTQRTQYDYWGQGTQVTVSS
binding result [1]: binds

B2: h_Nb30 VHH (VHH)
VHH: DVQLQESGGGLVQPGESLRVSCAASGFTFSNYYMTWVRQAPGKGLEWVSFLNPSSSERFYADSVKGRFTISRDNAKNTLDLLMHSLKPEDTALYYCARHLKYNWAPNYDYWGQGTQVTVSS
binding result [1]: binds

B3: h_Nb2 (expressed from pFUSE-hIgG1-Fc) (Fc fusion)
chain: DVQLQESGGGLVQPGGSLRLSCAASGFTFGDRWMYWLRQAPGKGLEWVSSINPAGRSTYYADSVKGRFTISRDNAKNTLYLQMNSLKSEDTAVYYCTKDPGGYQKGQGTQVTVSS
notes: Candidates were cloned into pFUSE-mIgG2b-Fc and pFUSE-hIgG1-Fc; not shown: human IgG1 Fc as encoded by the pFUSE-hIgG1-Fc vector
binding result [2]: binds

B4: h_Nb2 VHH (VHH)
VHH: B3 chain
binding result [1]: binds

B5: h_Nb2_P100R (VHH)
VHH: B3 chain with P100R
notes: also called 95
Improved value of relative affinity [3]: 7.21

B6: h_Nb2_F29W (VHH)
VHH: B3 chain with F29W
notes: also called 94
Improved value of relative affinity [3]: 1.44

B7: h_Nb2_G101R (VHH)
VHH: B3 chain with G101R
notes: also called 90
Improved value of relative affinity [3]: 6.5

B8: h_Nb2_F29R (VHH)
VHH: B3 chain with F29R
notes: also called 93
Improved value of relative affinity [3]: 1.46

B9: h_Nb2_G30W (VHH)
VHH: B3 chain with G30W
notes: also called 89
Improved value of relative affinity [3]: 10

B10: h_Nb2_P100E (VHH)
VHH: B3 chain with P100E
notes: also called 97
Improved value of relative affinity [3]: 3.98

B11: h_Nb2_P100Q (VHH)
VHH: B3 chain with P100Q
notes: also called 96
Improved value of relative affinity [3]: 3.41

B12: h_Nb2_G30R (VHH)
VHH: B3 chain with G30R
notes: also called 87
Improved value of relative affinity [3]: 6.23

B13: h_Nb2_G30F (VHH)
VHH: B3 chain with G30F
notes: also called 88
Improved value of relative affinity [3]: 5.11

B14: h_Nb2_G101Y (VHH)
VHH: B3 chain with G101Y
notes: also called 92
Improved value of relative affinity [3]: 8.48

B15: h_Nb2_G101W (VHH)
VHH: B3 chain with G101W
notes: also called 91
Improved value of relative affinity [3]: 5.92

B16: h_Nb13 VHH (VHH)
VHH: DVQLQESGGGLVQPGGSLRLSCAASGSIFSINAMGWYRQAPGKSRELVAAITSGGSTNYADSVKGRFTISRDTAKNTVYLLMNSLEPEDTAVYYCNVERRRPPHYLSEYDFDWGQGTQVTVSS
binding result [1]: binds

B17: h_Nb26 VHH (VHH)
VHH: B16 VHH with S25P, S30R, S44Q, K64Q, T73N, L81Q, E86K, L106Y, E108D
binding result [1]: binds

B18: h_Nb9 VHH (VHH)
VHH: DVQLQESGGGLVQPGGSLRLSCASSGSIFGLGVKGWYRQPPGNQREMVAQIISGGRISYADSVKGRFTISRDNAKNTVYLQMNSLKPEDTAVYYCNAWGPGQRNYWGRGTQVTVSS
binding result [1]: binds

B19: h_Nb4 VHH (VHH)
VHH: DVQLQESGGGLVQAGGSLRLSCAAPSRMFSGYTMGWYRQAPGKQRELVAQIANGGFTDYIDSVKGRFSISRDTVLNMMYLQMNSLKPEDTAVYYCNLVLVNGIPTRNWGQGTQVTVSS
binding result [1]: binds

B20: h_Nb1 VHH (VHH)
VHH: DVQLQESGGGLVQPGGSLRLSCAASGFTFSSYAMSWVRQAPGKGLEWVSDINSGGDNTDYADSVKGRFTISRDNAKNTLYLQMNSLKPEDTAVYYCARGPKLCFSSWGQGTQVTVSS
binding result [1]: binds

B21: h_Nb1 (expressed from pFUSE-hIgG1-Fc) (Fc fusion)
chain: B20 VHH
notes: as for B3
binding result [2]: binds

B22: h_Nb1_C103K (VHH)
VHH: B20 VHH with C103K
notes: also called 80
Improved value of relative affinity [4]: 3.31

B23: h_Nb1_A61N (VHH)
VHH: B20 VHH with A61N
notes: also called 72
Improved value of relative affinity [4]: 5.13

B24: h_Nb1_G99R (VHH)
VHH: B20 VHH with G99R
notes: also called 83
Improved value of relative affinity [4]: 12.1

B25: h_Nb1_D59R (VHH)
VHH: B20 VHH with D59R
notes: also called 75
Improved value of relative affinity [4]: 4.28

B26: h_Nb1_A61K (VHH)
VHH: B20 VHH with A61K
notes: also called 74
Improved value of relative affinity [4]: 4.12

B27: h_Nb1_D62W (VHH)
VHH: B20 VHH with D62W
notes: also called 78
Improved value of relative affinity [4]: 11.7

B28: h_Nb1_G99Q (VHH)
VHH: B20 VHH with G99Q
notes: also called 84
Improved value of relative affinity [4]: 6.16

B29: h_Nb1_D62Y (VHH)
VHH: B20 VHH with D62Y
notes: also called 79
Improved value of relative affinity [4]: 5.8

B30: h_Nb1_C103W (VHH)
VHH: B20 VHH with C103W
notes: also called 82
Improved value of relative affinity [4]: 3.83

B31: h_Nb1_D59M (VHH)
VHH: B20 VHH with D59M
notes: also called 76
Improved value of relative affinity [4]: 4.9

B32: h_Nb1_G99W (VHH)
VHH: B20 VHH with G99W
notes: also called 85
Improved value of relative affinity [4]: 6.16

B33: h_Nb1_C103M (VHH)
VHH: B20 VHH with C103M
notes: also called 81
Improved value of relative affinity [4]: 3.38

B34: h_Nb1_G99Y (VHH)
VHH: B20 VHH with G99Y
notes: also called 86
Improved value of relative affinity [4]: 7.02

B35: h_Nb1_A61Q (VHH)
VHH: B20 VHH with A61Q
notes: also called 73
Improved value of relative affinity [4]: 4.66

B36: h_Nb1_D59F (VHH)
VHH: B20 VHH with D59F
notes: also called 77
Improved value of relative affinity [4]: 5.12

B37: h_Nb5 VHH (VHH)
VHH: DVQLQESGGGAVQSGESLRLSCAASGRDLMFYDVAWFRQAPGKEREGVSYIRSSGTLTKYADSVKGRFTISRDNDKNTVSLQMNSLNPEDTAKYYCAARLQSATSHSDLREDEFNSWGQGTQVTVSS
binding result [1]: binds

Reference: patent US20250197503A1 (SHANGHAI INSTITUTE OF MATERIA MEDICA CHINESE ACADEMY OF …, published 2025)
